Data on eleven molecules can be found in patent US20200024322A1 (Eli Lilly, published 2020).

Positions count from the first letter of the chain named. Numbered stars: 1 amine (or outer) side, 2 acyl side, 3 side chain; on linkers, the order of the positions; unused ones are H or OH. Square brackets hold non-standard residues; d marks the D form. Side chains are listed from the residue outwards. Ends that are not written are not given here. * marks the point of attachment. C20 diacid = O=C(O)CCCCCCCCCCCCCCCCCCC(=O)*; γGlu = O=C(O)[C@H](CCC(=O)[*:2])N[*:1]; AEEA = NCCOCCOCC(=O)O; Aib = CC(C)(N)C(=O)O

B1: Example 29 (peptide)
peptide: Y[Aib]EGTFTSDYSILLDK([AEEA-AEEA-γGlu-C20 diacid])IAQ[Aib]AFIEYLIEGGPSSGAPPPS-NH2
modifications: N-terminus assumed
SMILES: CC[C@H](C)[C@H](NC(=O)[C@H](CCCCNC(=O)COCCOCCNC(=O)COCCOCCNC(=O)CC[C@H](NC(=O)CCCCCCCCCCCCCCCCCCC(=O)O)C(=O)O)NC(=O)[C@H](CC(=O)O)NC(=O)[C@H](CC(C)C)NC(=O)[C@H](CC(C)C)NC(=O)[C@@H](NC(=O)[C@H](CO)NC(=O)[C@H](Cc1ccc(O)cc1)NC(=O)[C@H](CC(=O)O)NC(=O)[C@H](CO)NC(=O)[C@@H](NC(=O)[C@H](Cc1ccccc1)NC(=O)[C@@H](NC(=O)CNC(=O)[C@H](CCC(=O)O)NC(=O)C(C)(C)NC(=O)[C@@H](N)Cc1ccc(O)cc1)[C@@H](C)O)[C@@H](C)O)[C@@H](C)CC)C(=O)N[C@@H](C)C(=O)N[C@@H](CCC(N)=O)C(=O)NC(C)(C)C(=O)N[C@@H](C)C(=O)N[C@@H](Cc1ccccc1)C(=O)N[C@H](C(=O)N[C@@H](CCC(=O)O)C(=O)N[C@@H](Cc1ccc(O)cc1)C(=O)N[C@@H](CC(C)C)C(=O)N[C@H](C(=O)N[C@@H](CCC(=O)O)C(=O)NCC(=O)NCC(=O)N1CCC[C@H]1C(=O)N[C@@H](CO)C(=O)N[C@@H](CO)C(=O)NCC(=O)N[C@@H](C)C(=O)N1CCC[C@H]1C(=O)N1CCC[C@H]1C(=O)N1CCC[C@H]1C(=O)N[C@@H](CO)C(N)=O)[C@@H](C)CC)[C@@H](C)CC
B2: Example 8 (peptide)
peptide: YXEGTFTSDYSILLDKKAQXAFIEYLIEGGPSSGAPPPS
modifications: Aib2; K17((2-[2-(2-Amino-ethoxy)-ethoxy]-acetyl)2-(γ-Glu)-CO-(CH2)18-CO2H); Aib20; C-terminal NH2
B3: Example 9 (peptide)
peptide: Y[Aib]EGTFTSDYSILLDSK([AEEA-AEEA-γGlu-C20 diacid])AQ[Aib]AFIEYLIEGGPSSGAPPPS-NH2
modifications: N-terminus assumed
SMILES: CC[C@H](C)[C@H](NC(=O)[C@H](CC(C)C)NC(=O)[C@H](Cc1ccc(O)cc1)NC(=O)[C@H](CCC(=O)O)NC(=O)[C@@H](NC(=O)[C@H](Cc1ccccc1)NC(=O)[C@H](C)NC(=O)C(C)(C)NC(=O)[C@H](CCC(N)=O)NC(=O)[C@H](C)NC(=O)[C@H](CCCCNC(=O)COCCOCCNC(=O)COCCOCCNC(=O)CC[C@H](NC(=O)CCCCCCCCCCCCCCCCCCC(=O)O)C(=O)O)NC(=O)[C@H](CO)NC(=O)[C@H](CC(=O)O)NC(=O)[C@H](CC(C)C)NC(=O)[C@H](CC(C)C)NC(=O)[C@@H](NC(=O)[C@H](CO)NC(=O)[C@H](Cc1ccc(O)cc1)NC(=O)[C@H](CC(=O)O)NC(=O)[C@H](CO)NC(=O)[C@@H](NC(=O)[C@H](Cc1ccccc1)NC(=O)[C@@H](NC(=O)CNC(=O)[C@H](CCC(=O)O)NC(=O)C(C)(C)NC(=O)[C@@H](N)Cc1ccc(O)cc1)[C@@H](C)O)[C@@H](C)O)[C@@H](C)CC)[C@@H](C)CC)C(=O)N[C@@H](CCC(=O)O)C(=O)NCC(=O)NCC(=O)N1CCC[C@H]1C(=O)N[C@@H](CO)C(=O)N[C@@H](CO)C(=O)NCC(=O)N[C@@H](C)C(=O)N1CCC[C@H]1C(=O)N1CCC[C@H]1C(=O)N1CCC[C@H]1C(=O)N[C@@H](CO)C(N)=O
B4: Example 7 (peptide)
peptide: Y[Aib]EGTFTSDYSILLDSK([AEEA-AEEA-γGlu-C20 diacid])AQ[Aib]AFIEYLLEGGPSSGAPPPS-NH2
modifications: N-terminus assumed
SMILES: CC[C@H](C)[C@H](NC(=O)[C@H](Cc1ccccc1)NC(=O)[C@H](C)NC(=O)C(C)(C)NC(=O)[C@H](CCC(N)=O)NC(=O)[C@H](C)NC(=O)[C@H](CCCCNC(=O)COCCOCCNC(=O)COCCOCCNC(=O)CC[C@H](NC(=O)CCCCCCCCCCCCCCCCCCC(=O)O)C(=O)O)NC(=O)[C@H](CO)NC(=O)[C@H](CC(=O)O)NC(=O)[C@H](CC(C)C)NC(=O)[C@H](CC(C)C)NC(=O)[C@@H](NC(=O)[C@H](CO)NC(=O)[C@H](Cc1ccc(O)cc1)NC(=O)[C@H](CC(=O)O)NC(=O)[C@H](CO)NC(=O)[C@@H](NC(=O)[C@H](Cc1ccccc1)NC(=O)[C@@H](NC(=O)CNC(=O)[C@H](CCC(=O)O)NC(=O)C(C)(C)NC(=O)[C@@H](N)Cc1ccc(O)cc1)[C@@H](C)O)[C@@H](C)O)[C@@H](C)CC)C(=O)N[C@@H](CCC(=O)O)C(=O)N[C@@H](Cc1ccc(O)cc1)C(=O)N[C@@H](CC(C)C)C(=O)N[C@@H](CC(C)C)C(=O)N[C@@H](CCC(=O)O)C(=O)NCC(=O)NCC(=O)N1CCC[C@H]1C(=O)N[C@@H](CO)C(=O)N[C@@H](CO)C(=O)NCC(=O)N[C@@H](C)C(=O)N1CCC[C@H]1C(=O)N1CCC[C@H]1C(=O)N1CCC[C@H]1C(=O)N[C@@H](CO)C(N)=O
B5: Example 6 (peptide)
peptide: Y[Aib]EGTFTSDYSILLDKK([AEEA-AEEA-γGlu-C20 diacid])AQ[Aib]AFIEYLLEGGPSSGAPPPS-NH2
modifications: N-terminus assumed
SMILES: CC[C@H](C)[C@H](NC(=O)[C@H](Cc1ccccc1)NC(=O)[C@H](C)NC(=O)C(C)(C)NC(=O)[C@H](CCC(N)=O)NC(=O)[C@H](C)NC(=O)[C@H](CCCCNC(=O)COCCOCCNC(=O)COCCOCCNC(=O)CC[C@H](NC(=O)CCCCCCCCCCCCCCCCCCC(=O)O)C(=O)O)NC(=O)[C@H](CCCCN)NC(=O)[C@H](CC(=O)O)NC(=O)[C@H](CC(C)C)NC(=O)[C@H](CC(C)C)NC(=O)[C@@H](NC(=O)[C@H](CO)NC(=O)[C@H](Cc1ccc(O)cc1)NC(=O)[C@H](CC(=O)O)NC(=O)[C@H](CO)NC(=O)[C@@H](NC(=O)[C@H](Cc1ccccc1)NC(=O)[C@@H](NC(=O)CNC(=O)[C@H](CCC(=O)O)NC(=O)C(C)(C)NC(=O)[C@@H](N)Cc1ccc(O)cc1)[C@@H](C)O)[C@@H](C)O)[C@@H](C)CC)C(=O)N[C@@H](CCC(=O)O)C(=O)N[C@@H](Cc1ccc(O)cc1)C(=O)N[C@@H](CC(C)C)C(=O)N[C@@H](CC(C)C)C(=O)N[C@@H](CCC(=O)O)C(=O)NCC(=O)NCC(=O)N1CCC[C@H]1C(=O)N[C@@H](CO)C(=O)N[C@@H](CO)C(=O)NCC(=O)N[C@@H](C)C(=O)N1CCC[C@H]1C(=O)N1CCC[C@H]1C(=O)N1CCC[C@H]1C(=O)N[C@@H](CO)C(N)=O
B6: Example 139 (peptide)
peptide: B2 peptide with F6X, L13X, A21T
modifications: Aib2; αMeF6; αMeL13; K17((2-[2-(2-Amino-ethoxy)-ethoxy]-acetyl)2-(γ-Glu)-CO-(CH2)18-CO2H); Aib20; C-terminal NH2
B7: Example 134 (peptide)
peptide: XXEGTXTSDYSIXLDEKAQXEFIEYLIEGGPSSGAPPPS
modifications: DesTyr1; Aib2; αMeF(2F)6; αMeL13; K17((2-[2-(2-Amino-ethoxy)-ethoxy]-acetyl)2-(γ-Glu)-CO-(CH2)18-CO2H); Aib20; C-terminal NH2
B8: Example 13 (peptide)
peptide: Y[Aib]EGTFTSDYSILLD[Aib]IAQK([AEEA-AEEA-γGlu-C20 diacid])AFIEYLIEGGPSSGAPPPS-NH2
modifications: N-terminus assumed
SMILES: CC[C@H](C)[C@H](NC(=O)[C@H](CC(C)C)NC(=O)[C@H](Cc1ccc(O)cc1)NC(=O)[C@H](CCC(=O)O)NC(=O)[C@@H](NC(=O)[C@H](Cc1ccccc1)NC(=O)[C@H](C)NC(=O)[C@H](CCCCNC(=O)COCCOCCNC(=O)COCCOCCNC(=O)CC[C@H](NC(=O)CCCCCCCCCCCCCCCCCCC(=O)O)C(=O)O)NC(=O)[C@H](CCC(N)=O)NC(=O)[C@H](C)NC(=O)[C@@H](NC(=O)C(C)(C)NC(=O)[C@H](CC(=O)O)NC(=O)[C@H](CC(C)C)NC(=O)[C@H](CC(C)C)NC(=O)[C@@H](NC(=O)[C@H](CO)NC(=O)[C@H](Cc1ccc(O)cc1)NC(=O)[C@H](CC(=O)O)NC(=O)[C@H](CO)NC(=O)[C@@H](NC(=O)[C@H](Cc1ccccc1)NC(=O)[C@@H](NC(=O)CNC(=O)[C@H](CCC(=O)O)NC(=O)C(C)(C)NC(=O)[C@@H](N)Cc1ccc(O)cc1)[C@@H](C)O)[C@@H](C)O)[C@@H](C)CC)[C@@H](C)CC)[C@@H](C)CC)C(=O)N[C@@H](CCC(=O)O)C(=O)NCC(=O)NCC(=O)N1CCC[C@H]1C(=O)N[C@@H](CO)C(=O)N[C@@H](CO)C(=O)NCC(=O)N[C@@H](C)C(=O)N1CCC[C@H]1C(=O)N1CCC[C@H]1C(=O)N1CCC[C@H]1C(=O)N[C@@H](CO)C(N)=O
B9: Example 209 (peptide)
peptide: B7 peptide with X1Y, E16X, E24X
modifications: Aib2; αMeF(2F)6; αMeL13; Dab16; K17((2-[2-(2-Amino-ethoxy)-ethoxy]-acetyl)2-(γ-Glu)-CO-(CH2)16-CO2H); Aib20; D-Glu24; C-terminal NH2
B10: Example 208 (peptide)
peptide: B7 peptide with X1Y, E24X
modifications: Aib2; αMeF(2F)6; αMeL13; K17((2-[2-(2-Amino-ethoxy)-ethoxy]-acetyl)2-(γ-Glu)-CO-(CH2)14-CO2H); Aib20; D-Glu24; C-terminal NH2
B11: Example 210 (peptide)
peptide: B7 peptide with X1Y, E16X, E24X
modifications: Aib2; αMeF(2F)6; αMeL13; Dap16; K17((2-[2-(2-Amino-ethoxy)-ethoxy]-acetyl)2-(γ-Glu)-CO-(CH2)16-CO2H); Aib20; D-Glu24; C-terminal NH2

For the first assay, the target named is T1, human glucagon receptor (human, UniProt P47871 26-477).
T1 construct: whole, on cells; Used as crude membranes of stably transfected HEK293 cells; also called hGcgR; hGLcgR
T1 sequence (P47871 26-477): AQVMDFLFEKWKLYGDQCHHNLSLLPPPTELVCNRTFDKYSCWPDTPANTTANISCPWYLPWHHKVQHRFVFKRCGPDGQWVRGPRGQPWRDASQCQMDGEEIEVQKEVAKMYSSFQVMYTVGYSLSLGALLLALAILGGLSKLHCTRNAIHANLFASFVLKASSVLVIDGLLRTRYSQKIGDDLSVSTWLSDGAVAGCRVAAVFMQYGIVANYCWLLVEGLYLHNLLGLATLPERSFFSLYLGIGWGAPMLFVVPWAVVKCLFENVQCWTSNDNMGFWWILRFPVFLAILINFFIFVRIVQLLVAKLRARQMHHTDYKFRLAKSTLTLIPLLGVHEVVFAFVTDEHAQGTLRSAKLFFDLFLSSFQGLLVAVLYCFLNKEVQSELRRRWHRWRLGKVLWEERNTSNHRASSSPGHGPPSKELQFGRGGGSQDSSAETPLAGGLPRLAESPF
The assay can be described thus: SPA, [125I]-Gcg displacement, hGcgR membranes.
Take B1: the Ki (in general, a measure of affinity in units of concentration, obtained from inhibition or displacement) stood at 132 nM.
As to B2, the Ki turned out to be 206 nM.
On to B3, for which affinity was put at a Ki of 375 nM. This Ki lies about 1.8-fold higher than the previous one.
With B4, the Ki came to 198 nM.
With B5, the inhibition constant Ki was 55.8 nM.
B6 gave a Ki of 105 nM.
B7 displayed a Ki of 60.5 nM.

In a further assay the target is T2, human GIP receptor (human, UniProt P48546 22-466).
T2 construct: whole, on cells; Used as crude membranes of stably transfected CHO cells; also called hGIPR
T2 sequence (looked up): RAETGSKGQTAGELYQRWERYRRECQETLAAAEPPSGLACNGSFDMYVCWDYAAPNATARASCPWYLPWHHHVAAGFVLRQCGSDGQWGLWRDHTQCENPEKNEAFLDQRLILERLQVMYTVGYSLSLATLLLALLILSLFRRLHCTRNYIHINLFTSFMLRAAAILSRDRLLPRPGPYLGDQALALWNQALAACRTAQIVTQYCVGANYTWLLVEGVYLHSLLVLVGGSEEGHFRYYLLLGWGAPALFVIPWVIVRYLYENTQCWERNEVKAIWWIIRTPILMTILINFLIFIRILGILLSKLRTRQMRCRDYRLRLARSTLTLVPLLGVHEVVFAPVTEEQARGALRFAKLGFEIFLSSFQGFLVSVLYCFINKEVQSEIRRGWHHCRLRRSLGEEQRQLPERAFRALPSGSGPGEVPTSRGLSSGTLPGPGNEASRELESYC
The assay can be described thus: SPA, [125I]-GIP displacement, hGIPR membranes.
In the case of B1, the affinity, expressed as Ki, was 0.377 nM. This counts as sub-nanomolar.
Same read-out and setting: the figure for B2 is 0.0772 nM; for B3 it is 0.127 nM.
Still for that read-out and setting: the figure for B4 is 0.252 nM; for B5 it is 0.0835 nM; for B8 it is 0.296 nM.
As for B6, the affinity corresponds to a Ki of 0.036 nM.
On to B9, for which the affinity corresponds to a Ki of 0.0664 nM.
Regarding B10, the Ki was found to be 0.0537 nM.
In the case of B11, the Ki amounted to 0.0399 nM.
The same measure, in the same setting: under B7 stands 0.14 nM.

A further assay deals with T3, human GLP-1 receptor (human, UniProt P43220 24-463).
T3 construct: whole, on cells; Used as crude membranes of stably transfected HEK293 cells; also called hGLP1R; hGLP-1R
Put plainly: SPA, [125I]-GLP-1 displacement, hGLP-1R membranes.
B1 came in with a Ki of 8 nM.
As for B2, the Ki was 2.84 nM.
On to B3, for which the Ki is 14.9 nM.
B4: the Ki stood at 43.3 nM.
Molecule B5 gave a Ki of 6.71 nM.
As for B8, the Ki amounted to 31.1 nM.
B9 had a Ki of 1.43 nM.
Still for that read-out and setting: under B10 stands 2.13 nM; under B11, 1.58 nM.
